T1: mouse β6 on transfected HEK-293 cells (mouse) (UniProt Q9Z0T9)
T1 sequence (looked up): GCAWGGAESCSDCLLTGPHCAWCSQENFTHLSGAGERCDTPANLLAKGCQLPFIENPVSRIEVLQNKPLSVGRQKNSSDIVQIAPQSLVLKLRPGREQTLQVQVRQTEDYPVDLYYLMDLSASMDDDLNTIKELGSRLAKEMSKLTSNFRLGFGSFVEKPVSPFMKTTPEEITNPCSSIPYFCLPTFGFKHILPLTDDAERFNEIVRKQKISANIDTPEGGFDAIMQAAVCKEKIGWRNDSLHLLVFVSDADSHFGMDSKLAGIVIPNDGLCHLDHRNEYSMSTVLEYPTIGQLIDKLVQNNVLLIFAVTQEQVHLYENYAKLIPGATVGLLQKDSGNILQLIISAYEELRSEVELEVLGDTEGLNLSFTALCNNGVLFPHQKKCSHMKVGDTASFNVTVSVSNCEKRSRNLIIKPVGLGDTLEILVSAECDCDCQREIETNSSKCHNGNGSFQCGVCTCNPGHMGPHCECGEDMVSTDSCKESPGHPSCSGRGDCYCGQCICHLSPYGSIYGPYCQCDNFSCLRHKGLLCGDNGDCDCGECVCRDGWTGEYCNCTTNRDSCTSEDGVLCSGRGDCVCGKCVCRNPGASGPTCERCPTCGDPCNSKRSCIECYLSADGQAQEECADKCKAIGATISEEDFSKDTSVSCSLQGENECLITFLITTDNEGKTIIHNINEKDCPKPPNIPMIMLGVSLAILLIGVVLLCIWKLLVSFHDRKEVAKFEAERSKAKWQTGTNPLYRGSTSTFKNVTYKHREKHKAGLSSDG

B1: sc 264 (antibody, V domains shown)
VH: QVQLQESGPGLVKPSQTLSLTCTVSGGSISSGGYYWSWIRQHPGKGLEWIGYIYYSGRTYNNPSLKSRVTISVDTSKNQFSLKLSSVTAADTAVYYCARVATGRGDYHFYAMDVWGQGTTVTVSS
VL: SYELTQPSSVSVSPGQTARITCSGDVLAKKSARWFHQKPGQAPVLVIYKDSERPSGIPERFSGSSSGTTVTLTISGAQVEDEAAYYCYSAADNNLVFGGGTKLTVL
B2: sc 161 (antibody, V domains shown)
VH: EVQLVQSGAEVKKPGESLKISCKGSGYSFTSYWIGWVRQMPGKGLEWMGIIYPGDSDTRYSPSFQGQVTISADKSISTAYLQWSSLKASDTAMYYCARHGIAAAGFYYYYMDVWGQGTTVTVSS
VL: EIVLTQSPDTLSLSPGERASLSCRASQNVNRNYLVWYQQKPGQAPRLLIYGTSNRATGIPDRFSGSGSGTDFTLTISRLEPEDFAVYYCQQCGSLPFTFGPGTKVDIKR
B3: sc 97 (antibody, V domains shown)
VH: EVQLVQSGAEVKKPGESLKISCKGSGYSFTSYWIGWVRQMPGKGLEWMGIIYPGDSDTRYSPSFQGQVILSADKSISTAYLQWSSLKASDTAMYYCARHDESSGYYYVFDIWGQGTMVTVSS
VL: SYELTQPPSVSVSPGQTARITCSGDALPKKYAYWYQQKSGQAPVLVIYEDIKRPSGIPERFSGSSSGTMATLTISGAQVEDEADYYCYSTDSSGNHWVFFGGGTKLTVL
B4: sc 133 (antibody, V domains shown)
VH: QVQLVQSGAEVKKPGASVKVSCKASGYTFTGYYMHWVRQAPGQGLEWMGWINPKSGDTNYAQKFQGRVTLTRDTSTSTAYMELSRLRSDDTAVYYCARRLDVWGQGTTVTVSS
VL: QSVLTQPPSVSAAPGQKVTISCSGSSSNIGNNYVSWYQQLPGTAPKLLIYDNNKRPSGIPDRFSGSKSGTSATLGITGLQTGDEADYYCGTWNSSLSAGYVFGTGTKVTV
B5: sc 320 (antibody, V domains shown)
VH: EVQLVESGGGLVKPGGSLRLSCAASGYTFTNYIMHWVRQAPGKGLEWVSSISISSSYIYYADSVKGRFTISRDNAKNSLYLQMNSLRAEDTAVYYCARDPVPLERRDYYYGMDVWGQGTTVTVSS
VL: QSVLTQPPSMSAAPGQKVTISCSGSSSNIGNNYVSWYQQLPGTAPKLLIYDNNKRPSGIPDRFSGSKSGTSATLGITGLQTGDEADYYCGTWDSSLSAGVFGGGTKLTVL
B6: sc 277 (antibody, V domains shown)
VH: EVQLVQSGAEVKKPGESLKISCKGSGYSFPSYWIGWVRQMPGKGLEWMGIIYPGDSDTRYSPSFQGQVTISADKSISTAYLQWSSLKASDTAMYYCARHPMEDGMDVWGQGTTVTVSS
VL: SYELTQPPSVSVSPGQTARITCSGDALPKKYAFWYQQKSGQAPVLVIYDDNKRPSGIPERFSGSSSGTMATLTITGAQVEDEADYYCYSTDSSGHHVFGGGTKLTVL

Tests used:
[1] = molecular target: human αV on parental A375M cells (αVβ3 and αVβ5) (human) (UniProt P06756); assay: FACS, supernatant, parental A375M cells (αVβ3 and αVβ5, no αVβ6)
[2] = molecular target: cynomolgus β6 on transfected HEK-293 cells (cynomolgus); assay: FACS, purified mAb, transiently transfected HEK-293 cells (parental cells 74)
[3] = molecular target: T1, mouse β6 on transfected HEK-293 cells (mouse); assay: as above
[4] = molecular target: mouse αV on transfected HEK-293 cells (mouse) (UniProt P43406); assay: as above
[5] = molecular target: human αV on parental A375M cells (αVβ3 and αVβ5) (human) (UniProt P06756); assay: cell-based or functional assay

Chain of mouse αV on transfected HEK-293 cells (mouse) (P43406 31-1044): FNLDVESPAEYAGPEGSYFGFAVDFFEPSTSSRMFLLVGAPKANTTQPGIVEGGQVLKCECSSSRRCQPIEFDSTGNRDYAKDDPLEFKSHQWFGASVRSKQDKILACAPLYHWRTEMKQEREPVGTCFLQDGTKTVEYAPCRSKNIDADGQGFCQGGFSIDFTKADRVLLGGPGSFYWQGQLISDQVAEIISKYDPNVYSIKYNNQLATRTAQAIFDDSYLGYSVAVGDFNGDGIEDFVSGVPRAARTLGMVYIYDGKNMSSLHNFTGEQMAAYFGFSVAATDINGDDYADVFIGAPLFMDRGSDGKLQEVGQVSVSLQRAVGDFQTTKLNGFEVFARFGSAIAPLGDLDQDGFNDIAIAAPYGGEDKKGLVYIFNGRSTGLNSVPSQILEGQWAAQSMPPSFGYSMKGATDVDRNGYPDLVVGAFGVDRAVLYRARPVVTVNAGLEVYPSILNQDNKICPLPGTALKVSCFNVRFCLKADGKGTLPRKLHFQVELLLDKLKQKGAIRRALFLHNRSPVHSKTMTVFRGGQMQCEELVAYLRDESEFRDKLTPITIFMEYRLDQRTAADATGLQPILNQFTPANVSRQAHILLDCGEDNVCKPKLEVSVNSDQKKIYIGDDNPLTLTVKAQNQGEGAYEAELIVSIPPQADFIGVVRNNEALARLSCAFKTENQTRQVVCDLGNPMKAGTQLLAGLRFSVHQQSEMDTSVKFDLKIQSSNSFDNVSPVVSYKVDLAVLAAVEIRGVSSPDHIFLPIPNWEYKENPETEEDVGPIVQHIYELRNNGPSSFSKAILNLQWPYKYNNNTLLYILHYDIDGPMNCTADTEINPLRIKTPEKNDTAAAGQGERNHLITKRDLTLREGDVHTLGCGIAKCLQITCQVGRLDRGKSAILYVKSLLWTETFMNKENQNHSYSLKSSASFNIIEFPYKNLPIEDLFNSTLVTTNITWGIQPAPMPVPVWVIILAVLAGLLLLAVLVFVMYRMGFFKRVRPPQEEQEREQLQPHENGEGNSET

Binder	A375M % Shifted Cells [1] [%]	A375M GeoMean [1]	percent of cells shifted [2] [%]	percent of cells shifted [3] [%]	percent of cells shifted [4] [%]	Percent Inhibition, adhesion of A375M cells to osteopontin peptide, 5 µg/ml [5] [%]
B1	46	2.35	75	68	71	3
B2	11	16.7				
B3	24	1.84				
B4	24	1.79				3
B5	15	23.2				
B6	23	1.86				
